Experimental data as given in patent US20240101959A1, “USE OF IL-2R-BETA-GAMMA AGONIST PEPTIDES IN CELL MANUFACTURING” (MEDIKINE, INC., priority 2022, published 2024).
No end group written: not given here.

B1: SEQ ID NO 510 (peptide)
peptide: LESLDCFFARIGDLCEIWDV
B2: SEQ ID NO 503 (peptide)
peptide: RVRRHSWWPCEIAVVGELCDLE
modifications: not fully specified (bridges); cysteine pairing not given here
B3: SEQ ID NO 539 (peptide)
peptide: DWLPDCYFANVGDLCSLFGS
B4: SEQ ID NO 520 (peptide)
peptide: GGYYDCLIAEVGELCDIYGR
B5: SEQ ID NO 540 (peptide)
peptide: HWFLDCFLANVGDLCDFFGN
B6: SEQ ID NO 530 (peptide)
peptide: RSLVDCFLVKVGDLCDFFNW
B7: SEQ ID NO 551 (peptide)
peptide: DGSWYTCWFTQLGEWCEQDDAK
B8: SEQ ID NO 111 (peptide)
peptide: WLPCWLAKLGELCDLEWLPCW
B9: SEQ ID NO 500 (peptide)
peptide: WEHEFTWYPCWIAQVGELCDMD
B10: SEQ ID NO 525 (peptide)
peptide: RLLRDCFLAKVGDLCELFVW
B11: SEQ ID NO 519 (peptide)
peptide: SMDQDCYFAQVGELCVLFNQ
B12: SEQ ID NO 528 (peptide)
peptide: RYVHDCFIAQVGDLCDLFLH
B13: SEQ ID NO 543 (peptide)
peptide: NWFHDCFLARVGDLCDLFLD
B14: SEQ ID NO 547 (peptide)
peptide: WYTCMMDWLGVHCELE
B15: SEQ ID NO 516 (peptide)
peptide: VTVQDCYFARVGDLCDLFSP
B16: SEQ ID NO 115 (peptide)
peptide: TRRWYPCYLAKLGELCDLFEGGTR
B17: SEQ ID NO 518 (peptide)
peptide: WAFYDCRNAQVGDFCDLWEF
B18: SEQ ID NO 544 (peptide)
peptide: YSFKDCYFAKVGELCELFLW
B19: SEQ ID NO 507 (peptide)
peptide: GGYYDCLIAEVGELCDMPGQ
B20: SEQ ID NO 536 (peptide)
peptide: HWVRDCFLAKVGELCDLFLW
B21: SEQ ID NO 498 (peptide)
peptide: WLPCWIAKIGDLCDLD
B22: SEQ ID NO 495 (peptide)
peptide: QITDSGWYPCWVAKVGELCDMD
B23: SEQ ID NO 537 (peptide)
peptide: HGILDCYFAKVGELCELFDW
B24: SEQ ID NO 514 (peptide)
peptide: LVYYDCYMAQVGELCDLPSL
B25: SEQ ID NO 532 (peptide)
peptide: AHFYDCFWAKAGELCDLWPS
B26: SEQ ID NO 511 (peptide)
peptide: WQIFDCYLAQVGELCDLQDT
B27: SEQ ID NO 522 (peptide)
peptide: YDCYIAQVGELCDI
B28: SEQ ID NO 545 (peptide)
peptide: EFFHDCYVARVGELCDLFGW
B29: SEQ ID NO 549 (peptide)
peptide: YWCSVWQLGSVCEMNNEETQ
B30: SEQ ID NO 542 (peptide)
peptide: EIFKDCLFANVGELCEIFPS
B31: SEQ ID NO 512 (peptide)
peptide: GRYPDCYIAHVGELCEFYDG
modifications: not fully specified (bridges); cysteine pairing not given here
B32: SEQ ID NO 505 (peptide)
peptide: LPFQDCYIAQVGELCDLPGT
B33: SEQ ID NO 546 (peptide)
peptide: SYLCWLDHWGVICEED
modifications: not fully specified (bridges); cysteine pairing not given here
B34: SEQ ID NO 501 (peptide)
peptide: HRGWVGWYPCEYALPGQLCDLE
B35: SEQ ID NO 509 (peptide)
peptide: TPWYDCYIANVGDLCDFASA
B36: SEQ ID NO 524 (peptide)
peptide: RLASDWWDCYIAKVGELCDF
modifications: not fully specified (bridges); cysteine pairing not given here
B37: SEQ ID NO 499 (peptide)
peptide: SRVWHPCWLARVGELCDLEVSD
B38: SEQ ID NO 112 (peptide)
peptide: ERRPDTWFPCWRALVGELCDLE
B39: SEQ ID NO 508 (peptide)
peptide: VVCYACDIAHVGELCDLTCR
B40: SEQ ID NO 114 (peptide)
peptide: QDRRSPWYPCWMAKLGELCDLA
B41: SEQ ID NO 496 (peptide)
peptide: YRWWYPCDIAQVGELCDLDYLL
B42: SEQ ID NO 523 (peptide)
peptide: SWLSDLQDCYIAQVGDLCQI
B43: SEQ ID NO 515 (peptide)
peptide: VSRYDCYIAKVGELCDFFEF
B44: SEQ ID NO 552 (peptide)
peptide: EFWGWQCWQEPLGWSCDLEWMD
B45: SEQ ID NO 113 (peptide)
peptide: WGRNRSWYPCWMAQLGELCDLE
B46: SEQ ID NO 517 (peptide)
peptide: WEWYDCLMAQVGELCDFEGN
B47: SEQ ID NO 513 (peptide)
peptide: FGDDFCRFIPLFEMCTTDVE
B48: SEQ ID NO 550 (peptide)
peptide: WTCWLTQLGYDCNLDVVDQSLG
B49: SEQ ID NO 526 (peptide)
peptide: QWFHNCFLARVGDTCDLFLW
B50: SEQ ID NO 534 (peptide)
peptide: WGKLVRDCFLAKVGDLCDLFLW
B51: SEQ ID NO 494 (peptide)
peptide: WYPCWMAKVGELCDME
B52: SEQ ID NO 535 (peptide)
peptide: THVHDCFLAKVGDLCDLFIV
B53: SEQ ID NO 529 (peptide)
peptide: KWVHDCFLAKVGDVCDLFVV
B54: SEQ ID NO 116 (peptide)
peptide: SEQWWPCWIARLGELCDLDRELSE
B55: SEQ ID NO 541 (peptide)
peptide: NWLPDCLFANVGELCDIFPW
B56: SEQ ID NO 538 (peptide)
peptide: QFVKDCFLAQVGDLCELFLW
B57: SEQ ID NO 527 (peptide)
peptide: ELLVDCFKVKVGELCDLFFG
B58: SEQ ID NO 117 (peptide)
peptide: WYPCWVAQLGEICDLEMTGPDSWYP
B59: SEQ ID NO 521 (peptide)
peptide: SNWHDCLFAQVGELCDLPGS
modifications: not fully specified (bridges); cysteine pairing not given here
B60: SEQ ID NO 504 (peptide)
peptide: DGWWPCWIAQVGELCDLEDPV
modifications: not fully specified (bridges); cysteine pairing not given here
B61: SEQ ID NO 506 (peptide)
peptide: RWMFDCLFARVGELCDIRPW
B62: SEQ ID NO 531 (peptide)
peptide: RYLYDCFLALVGDLCVKFHQ
B63: SEQ ID NO 548 (peptide)
peptide: QMVWWDCWSTQEGPVCELNWTA

Target: T1, hu-IL-2Rβ subunit (human, UniProt P14784 27-240, limits assumed)
T1 construct: also called human interleukin-2 receptor subunit β; CD122
T1 sequence (looked up): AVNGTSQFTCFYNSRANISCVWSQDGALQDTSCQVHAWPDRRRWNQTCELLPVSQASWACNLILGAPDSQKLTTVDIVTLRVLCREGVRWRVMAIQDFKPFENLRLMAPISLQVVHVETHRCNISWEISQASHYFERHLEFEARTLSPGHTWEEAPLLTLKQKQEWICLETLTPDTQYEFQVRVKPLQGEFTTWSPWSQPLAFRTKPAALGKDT
Experiment: phage ELISA competition assay

IC50, < 100 µM:
B1, B2, B3, B4, B5, B6, B7, B8, B9, B10, B11, B12, B13, B14, B15, B16, B17, B18, B19, B20, B21, B22, B23, B24, B25, B26, B27, B28, B29, B30, B31, B32, B33, B34, B35, B36, B37, B38, B39, B40, B41, B42, B43, B44, B45, B46, B47, B48, B49, B50, B51, B52, B53, B54, B55, B56, B57, B58, B59, B60, B61, B62, B63
